Experimental findings from patent US20250250357A1 (NANJING ZAIMING PHARMACEUTICAL, published 2025) are described below.

Where two headings read alike, the source gives them in different places.

Usually EC50 stands for the midpoint of the concentration-response curve.

In assay [1] the target is T1, human MSLN protein endogenously expressed on OVCAR3 tumor cells (human, UniProt Q13421 296-598).
T1 construct: whole, on cells; Endogenous target on OVCAR3 cells; kept apart from the recombinant full-length construct; also called mesothelin
The assay is described as follows: FACS on OVCAR3 cells.

Assay [2] has as its target T2, human MSLN-R3 protein (Met487-Ser606 of NCBI AAH09272.1) expressed on HEK293T-hMSLN-R3 cells (human, UniProt Q13421 487-606).
T2 construct: also called Region3
Briefly: FACS on HEK293T-hMSLN-R3 cells.

In assay [3] the target is T3, monkey MSLN full-length protein (NCBI: XP_028696439.1) expressed on HEK293T-monkey MSLN cells (monkey).
T3 construct: Whole encoded precursor
T3 chain: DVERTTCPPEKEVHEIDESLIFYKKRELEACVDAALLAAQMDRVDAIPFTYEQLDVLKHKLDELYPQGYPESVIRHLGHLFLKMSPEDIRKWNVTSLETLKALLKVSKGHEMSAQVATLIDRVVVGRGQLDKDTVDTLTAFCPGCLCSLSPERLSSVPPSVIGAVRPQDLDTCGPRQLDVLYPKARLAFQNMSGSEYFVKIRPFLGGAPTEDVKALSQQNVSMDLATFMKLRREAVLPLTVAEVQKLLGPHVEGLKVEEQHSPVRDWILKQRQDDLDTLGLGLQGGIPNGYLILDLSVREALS
The assay is described as follows: FACS on HEK293T-monkey MSLN cells.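 Note: flow cytometry binding of chimeric antibodies to the cells, with a 2 h incubation on ice.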

In assay [4] the target is T4, human MSLN protein endogenously expressed on OVCAR3 tumor cells (human, UniProt Q13421 296-598).
T4 construct: whole, on cells; endogenous expression on a tumor cell line; also called human mesothelin
The assay is described as follows: FACS on OVCAR3 cells.

The target in assay [5] is T5, human MSLN-R3 protein expressed on HEK293T cells (HEK293T-hMSLN-R3) (human, UniProt Q13421 487-606).
T5 construct: C-terminal limit uncertain
T5 sequence (Q13421 495-614): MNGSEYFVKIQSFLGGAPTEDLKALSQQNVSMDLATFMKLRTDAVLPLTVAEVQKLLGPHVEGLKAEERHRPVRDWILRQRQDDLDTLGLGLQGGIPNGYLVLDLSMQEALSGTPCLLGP
Briefly: FACS on HEK293T-hMSLN-R3 cells.

Assay [6] addresses T6, human MSLN on OVCAR3 tumor cells (human, UniProt Q13421 296-598).
T6 construct: whole, on cells; also called human MSLN protein
Briefly: FACS, OVCAR3 cells. (In general: A flow cytometer gives signals particle by particle.)

For assay [7], the target named is T7, human MSLN-R3 on HEK293T-hMSLN-R3 recombinant cells (human, UniProt Q13421 487-606).
T7 construct: the C-terminal limit is uncertain; also called human MSLN-R3 membrane protein
T7 sequence (Q13421 495-614): as above
The assay is described as follows: FACS, HEK293T-hMSLN-R3 cells.

The target in assay [8] is T8, monkey MSLN on HEK293T-monkey MSLN recombinant cells (monkey).
T8 construct: Full-length precursor as transfected; processing on the cell is not described; also called HEK293-monkey MSLN
T8 chain: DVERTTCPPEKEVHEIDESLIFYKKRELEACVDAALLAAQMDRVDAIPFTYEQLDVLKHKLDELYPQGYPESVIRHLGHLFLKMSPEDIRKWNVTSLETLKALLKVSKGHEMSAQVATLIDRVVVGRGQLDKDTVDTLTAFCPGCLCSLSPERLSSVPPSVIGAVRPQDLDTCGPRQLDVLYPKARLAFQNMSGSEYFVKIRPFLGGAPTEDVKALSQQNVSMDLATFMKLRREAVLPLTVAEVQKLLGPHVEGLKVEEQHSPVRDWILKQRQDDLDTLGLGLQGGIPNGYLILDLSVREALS
Briefly: FACS, HEK293T-monkey MSLN cells.

T2 sequence (Q13421 495-614): as the sequence (Q13421 495-614) above
T6 sequence (Q13421 other isoform, or with tags, fused parts or gaps): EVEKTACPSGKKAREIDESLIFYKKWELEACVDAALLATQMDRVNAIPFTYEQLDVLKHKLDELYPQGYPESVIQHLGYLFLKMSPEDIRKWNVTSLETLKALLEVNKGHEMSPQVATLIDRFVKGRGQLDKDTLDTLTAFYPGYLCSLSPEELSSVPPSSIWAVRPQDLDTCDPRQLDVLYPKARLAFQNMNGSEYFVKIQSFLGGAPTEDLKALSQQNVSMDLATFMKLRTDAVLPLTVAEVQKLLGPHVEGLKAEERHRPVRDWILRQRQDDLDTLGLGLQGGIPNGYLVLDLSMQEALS

B1: S009-F7.67.12 (antibody, human IgG1, kappa, V domains shown)
VH: QVQLQQPGTELVKPGASVRLSCRASGYSFSSYWMHWVKQRPGQGLEWLGNINPTTGDINYNEKFRNRATLAVDKSSTTAYLQLTSLTSEDSAVYFCVRHDGFLWGQGTTLTVSS
VL: DIQMTQSPASLSASVGETVTITCRASENIYSYLAWYQQKQGKSPQLLVYYAKTLAEGVSSRFSGSGSGTQFSLKINSLQPEDFGTYYCQHQFGTPRTFGGGTKLEIRR
notes: human-murine chimeric antibody, human IgG1/kappa constant regions
Turning to B1, the results for the EC50 in assay [1], in assay [2] and in assay [3] were 0.37 nM, 0.14 nM and 0.36 nM, respectively. Further, the “Maximum mean fluorescence intensity” value in assay [1] worked out at 29100; in assay [2] it was 6930; in assay [3], 59300.

B2: S009-F7.66.12 (antibody, human IgG1, kappa, V domains shown)
VH: QIPLQQSGPELVKPGASVRISCKASDYAFSSSWMNWVKQRPEKGLEWIGRIFVESGNTHYNDKFNGKATLTADKSSRTAYIQLSSLTSEDSAVYFCTRENIFYHGHSSWFAYWGQGTLVTVSA
VL: DIVLTQSPASLVVSLGQRATISCRAGESVDDFGISYVHWYQQKPGQPPKLLIYRAANLESGIPARFSGSGSRTDFTLTINPVETDDVAIYYCQQNNKDPFTFGSGTKLEIKR
notes: as for B1
For the molecule B2, in assay [1], the EC50 amounted to 0.87 nM and the “Maximum mean fluorescence intensity” value was 21900. In assay [2], the midpoint of the response, the EC50, lay at 0.38 nM and the “Maximum mean fluorescence intensity” value stood at 5900. In assay [3], the “Maximum mean fluorescence intensity” value is 60 and the binding result is “no binding”.

B3: S009-F7.69.8 (antibody, human IgG1, kappa, V domains shown)
VH: EVHLQQSGPELVKPGASVRIPCKASGYTFTDYNMDWVKQSHGKSLEWIGDINPDNGGTIYTQKFKGKATLTVDKSSSTAYMELRSLTSEDTAVYYCARRLHYYGSSGLDYWGQGTTLTVSS
VL: DIQMTQSPASLSAYVGETVTITCRASGNIHNYLAWYQQKQGKSPQLLVYNAKTLADGVPSRFSGSGSGTQYSLKINSLQPEDFGSYYCQHFWSTVWTFGGGTKLEIKR
notes: as for B1
As to B3, the EC50 in assay [1] is 0.36 nM; in assay [2] it was 0.14 nM; in assay [3], 12.5 nM. The “Maximum mean fluorescence intensity” value in assay [1] was 16600; in assay [2], 6590; in assay [3] it was 9230.

B4: S009-F8-9.16 (antibody, human IgG1, kappa, V domains shown)
VH: EVHLQQSGPVLVKPGASVKMSCKASGYTFTDYFMNWVKQSHGKSLEWIGVINPHNGYVNYNQKFQGRATLTVDKSSSTVYMELNSLTSEDSAVYHCARSAESAWFAYWGQRTLVTVSA
VL: DVLMTQTPLSLPVSLGDQVSISCRSSQSIVHVKGNTYLEWYLQKPGQSPELLIYKVSNRFSGVPDRFSGGGSGTDFTLKISRVEPEDLGVYYCFQGSHLPYTFGGGTKLEIKR
notes: as for B1
Take B4: in assay [4], the EC50 amounted to 0.86 nM and the “Maximum mean fluorescence intensity” value is 5380. For the same molecule, in assay [5], the EC50 was found to be 0.53 nM and the “Maximum mean fluorescence intensity” value came to 128000.

B5: F7.44.20-H1 (scFv, not shown: small tags and cut ends)
scFv: EVQLVQSGAEVKKPGASVKVSCKASGYTFTDYNMDWVRQAPGQGLEWMGDINPSTGGTIYNQKFNGRVTMTEDKSTSTVYMELSSLRSEDTAVYYCARRRIGTGYFDVWGQGTTVTVSSGGGGSGGGGSGGGGSEIVLTQSPDFQSVTPKEKVTITCSASSSVISSYLSWYQQKPDQSPKLLIYRTSNLASGVPSRFSGSGSGTDFTLTINSLEAEDAATYYCHQWSSFPYTFGGGTKVEIK
notes: also called S009-F7.44.20 humanized antibody VH1 + VL1
In the case of B5, the EC50 in assay [6] is 0.4 nM; in assay [7], 1.72 nM; in assay [8], 6.05 nM. Besides, the Maximum_MFI in assay [6] came out at 1820 MFI; in assay [7] it was 1750 MFI; in assay [8] it was 6550 MFI.

B6: F7.44.20-H6 (scFv, not shown: small tags and cut ends)
scFv: EVQLVQSGAEVKKPGASVKVSCKASGYTFTDYNMDWVRQAPGQGLEWMGDINPSTGGTIYNQKFQGRVTMTEDKSTSTVYMELSSLRSEDTAVYYCARRRIGTGYFDVWGQGTTVTVSSGGGGSGGGGSGGGGSEIVLTQSPDFQSVTPKEKVTITCSASSSVISSYLSWYQQKPDQSPKLLIYRTSNLASGVPSRFSGSGSGTDYTLTINSLEAEDAATYYCHQWSSFPYTFGGGTKVEIK
notes: also called S009-F7.44.20 humanized antibody VH1a + VL2
For the molecule B6, the EC50 stood at 1.6 nM in assay [6], 3.44 nM in assay [7] and 15 nM in assay [8]. Further, the Maximum_MFI turned out to be 1830 MFI in assay [6], 1540 MFI in assay [7] and 6020 MFI in assay [8].

B7: F7.44.20-H14 (scFv, not shown: small tags and cut ends)
scFv: EVQLVQSGAEVKKPGASVKVSCKASGYTFTDYNMDWVRQAPGQGLEWMGDINPSTGGTIYNQKFSGRVTMTEDKSASTVYMELSSLRSEDTAVYYCARRRIGTGYFDVWGQGTTVTVSSGGGGSGGGGSGGGGSEIVLTQSPDFQSVTPKEKVTITCSASSSVISSYLSWYQQKPDQSPKLLIYRTSNLASGVPSRFSGSGSGTDYTLTINSLEAEDAATYYCHQWSSFPYTFGGGTKVEIK
notes: also called S009-F7.44.20 humanized antibody VH2a + VL2
For B7, the results for the EC50 in assay [6], in assay [7] and in assay [8] were 1.83 nM, 1.52 nM and 7.37 nM, respectively. Moreover, the results for the Maximum_MFI in assay [6], in assay [7] and in assay [8] were 2140 MFI, 1440 MFI and 8130 MFI, respectively.

B8: F7.44.20-H13 (scFv, not shown: small tags and cut ends)
scFv: EVQLVQSGAEVKKPGASVKVSCKASGYTFTDYNMDWVRQAPGQGLEWMGDINPSTGGTIYNQKFSGRVTMTEDKSASTVYMELSSLRSEDTAVYYCARRRIGTGYFDVWGQGTTVTVSSGGGGSGGGGSGGGGSEIVLTQSPDFQSVTPKEKVTITCSASSSVISSYLSWYQQKPDQSPKLLIYRTSNLASGVPSRFSGSGSGTDFTLTINSLEAEDAATYYCHQWSSFPYTFGGGTKVEIK
notes: also called S009-F7.44.20 humanized antibody VH2a + VL1
As for B8, the results for the EC50 in assay [6], in assay [7] and in assay [8] were 1.33 nM, 0.63 nM and 2.35 nM, respectively. Further, the Maximum_MFI was 2150 MFI in assay [6], 1600 MFI in assay [7] and 9320 MFI in assay [8].

B9: F7.44.20-H10 (scFv, not shown: small tags and cut ends)
scFv: EVQLVQSGAEVKKPGASVKVSCKASGYTFTDYNMDWVRQAPGQGLEWMGDINPSTGGTIYNQKFNGRVTMTEDKSASTVYMELSSLRSEDTAVYYCARRRIGTGYFDVWGQGTTVTVSSGGGGSGGGGSGGGGSEIVLTQSPDFQSVTPKEKVTITCSASSSVISSYLSWYQQKPDQSPKLLIYRTSNLASGVPSRFSGSGSGTDYTLTINSLEAEDAATYYCHQWSSFPYTFGGGTKVEIK
notes: also called S009-F7.44.20 humanized antibody VH2 + VL2
Regarding B9, the half-maximal effective concentration (EC50) in assay [6] turned out to be 1.21 nM; in assay [7], 0.88 nM; in assay [8], 4.25 nM. The Maximum_MFI in assay [6] was determined as 2320 MFI; in assay [7], 1470 MFI; in assay [8] it was 9020 MFI.

B10: F7.44.20-H2 (scFv, not shown: small tags and cut ends)
scFv: EVQLVQSGAEVKKPGASVKVSCKASGYTFTDYNMDWVRQAPGQGLEWMGDINPSTGGTIYNQKFNGRVTMTEDKSTSTVYMELSSLRSEDTAVYYCARRRIGTGYFDVWGQGTTVTVSSGGGGSGGGGSGGGGSEIVLTQSPDFQSVTPKEKVTITCSASSSVISSYLSWYQQKPDQSPKLLIYRTSNLASGVPSRFSGSGSGTDYTLTINSLEAEDAATYYCHQWSSFPYTFGGGTKVEIK
notes: also called S009-F7.44.20 humanized antibody VH1 + VL2
For the molecule B10, the EC50 was found to be 0.99 nM in assay [6], 1.71 nM in assay [7] and 5.5 nM in assay [8]. Besides, the Maximum_MFI in assay [6] turned out to be 1820 MFI; in assay [7], 1690 MFI; in assay [8] it was 6950 MFI.
